Test results as given in patent WO2007022015A1.

Columns and labels:
[1] = biological target: rodent (mouse) Aβ1-42 (mouse (rodent)) (UniProt P12023); experiment: microplate assay on coated human and rodent Aβ1-40 and 1-42
[2] = biological target: rodent (mouse) Aβ1-40 (mouse (rodent)) (UniProt P12023); experiment: as above
human Aβ1-40 (human) = human Aβ1-40 (human) (UniProt P05067); experiment: sandwich ELISA, IAlO capture, HRP-14Fl detection, human and mouse Abeta 1-40
amyloid β (3-40) (human) = amyloid β (3-40) (human) (UniProt P05067); experiment: sandwich ELISA, IAlO capture, HRP-14Fl detection, Abeta fragment 3-40
amyloid β (2-40) (human) = amyloid β (2-40) (human) (UniProt P05067); experiment: sandwich ELISA, IAlO capture, HRP-14Fl detection, Abeta fragment 2-40

Molecule	cross-reactivity (against human Aβ) [1]	cross-reactivity (against human Aβ) [2]	cross reactivity (against mouse Abeta 1-40) (human Aβ1-40 (human))	cross reactivity (against full-length Abeta 1-40) (amyloid β (3-40) (human))	cross reactivity (against full-length Abeta 1-40) (amyloid β (2-40) (human))
Aβ N-terminal-end specific monoclonal antibody 82E1 (printed 82El)	10%	10%	–	–	–
14F1, mouse/human cross-reactive N terminus end-specific anti-Abeta antibody (antibody, V domains shown) VH: DVHLQASGPDLVRPSQSLSLTCTVTDYSITSDYSWHWIRQFPGNKLEWMGYILFSGSSNFNPSLKSRISITRDTSKNQFFLHLNSVTTEDTATYYCARRAYDGNFSWFAYWGQGTLVTVSA VL: QAVVTQESALTTSPGETVTLTCRSSAGAVTISNYANWVQEKPDHLFTGLIGGTNNRAPGVPARFSGSLIGDKAALTITGAQTEDEAIYFCALWYGNYWVFGGGTKLTVLG	–	–	50%	0.08%	0.78%
